The conditions of the series: Homo sapiens, pH 7.5, Thermal, CD, Tris-HCl 20mM, whole UniProt chain shown.

B1: Guanylyl cyclase-activating protein 1 wild type, P43080 (protein)
chain: MGNVMEGKSVEELSSTECHQWYKKFMTECPSGQLTLYEFRQFFGLKNLSPSASQYVEQMFETFDFNKDGYIDFMEYVAALSLVLKGKVEQKLRWYFKLYDVDGNGCIDRDELLTIIQAIRAINPCSDTTMTAEEFTDTVFSKIDVNGDGELSLEEFIEGVQKDQMLLDTLTRSLDLTRIVRRLQNGEQDEEGADEAAEAAG
Consider B1, for which the Tm reads like this: (KCL 150 mM) 49.8 °C; (KCL and Mg2+ 150 mM and 1 mM) 50.3 °C.

The Tm is the temperature at which the thermal transition is half complete.
